Measurements published in patent US5792634.

Molecular target: RNA polymerase II purified from rat liver (rat)

rate of RNA chain elongation, runoff transcription from the AdML promoter: > 5 fold
Substance: RNA polymerase transcription factor SIII (Elongin), purified from rat liver
